Test results: publication PMC12475274, “Harnessing indole scaffolds to identify small-molecule IRE1α inhibitors modulating XBP1 mRNA splicing” (Nature Communications, 2025)

Target: the molecule itself
Test: crystal structure; p-IRE1α (15 mg/mL) co-crystallised with 1 mM IA107; hanging drop, 0.05 M bicine pH 9.0, 36% PEG300, 0.12 M NaCl, 20 °C; four copies in the asymmetric unit

B1: phosphorylated human IRE1α kinase and RNase domain (residues 547–977) (domain or fragment, UniProt O75460 547-977, looked up)
chain: GSSPSLEQDDGDEETSVVIVGKISFCPKDVLGHGAEGTIVYRGMFDNRDVAVKRILPECFSFADREVQLLRESDEHPNVIRYFCTEKDRQFQYIAIELCAATLQEYVEQKDFAHLGLEPITLLQQTTSGLAHLHSLNIVHRDLKPHNILISMPNAHGKIKAMISDFGLCKKLAVGRHSFSRRSGVPGTEGWIAPEMLSEDCKENPTYTVDIFSAGCVFYYVISEGSHPFGKSLQRQANILLGACSLDCLHPEKHEDVIARELIEKMIAMDPQKRPSAKHVLKHPFFWSLEKQLQFFQDVSDRIEKESLDGPIVKQLERGGRAVVKMDWRENITVPLQTDLRKFRTYKGGSVRDLLRAMRNKKHHYRELPAEVRETLGSLPDDFVCYFTSRFPHLLAHTYRAMELCSHERLFQPYYFHEPPEPQPPVTPDAL
modifications: phosphorylated (fully phosphorylated fraction, verified by LC-MS); the phosphorylated residues are not given
notes: Human IRE1α (inositol-requiring enzyme 1 alpha), kinase and RNase domain, residues 547-977; Fully phosphorylated fraction separated from the unphosphorylated protein on the anion exchange column; also called p-IRE1α; phosphorylated IRE1α
B1: binds.
